Target: TRIM16 GST-fusion protein (substrate of the ULK1 kinase assay)

B1: Flag-ULK1 wt (protein)
chain: MEPGRGGTETVGKFEFSRKDLIGHGAFAVVFKGRHREKHDLEVAVKCINKKNLAKSQTLLGKEIKILKELKHENIVALYDFQEMANSVYLVMEYCNGGDLADYLHAMRTLSEDTIRLFLQQIAGAMRLLHSKGIIHRDLKPQNILLSNPAGRRANPNSIRVKIADFGFARYLQSNMMAATLCGSPMYMAPEVIMSQHYDGKADLWSIGTIVYQCLTGKAPFQASSPQDLRLFYEKNKTLVPTIPRETSAPLRQLLLALLQRNHKDRMDFDEFFHHPFLDASPSVRKSPPVPVPSYPSSGSGSSSSSSSTSHLASPPSLGEMQQLQKTLASPADTAGFLHSSRDSGGSKDSSCDTDDFVMVPAQFPGDLVAEAPSAKPPPDSLMCSGSSLVASAGLESHGRTPSPSPPCSSSPSPSGRAGPFSSSRCGASVPIPVPTQVQNYQRIERNLQSPTQFQTPRSSAIRRSGSTSPLGFARASPSPPAHAEHGGVLARKMSLGGGRPYTPSPQVGTIPERPGWSGTPSPQGAEMRGGRSPRPGSSAPEHSPRTSGLGCRLHSAPNLSDLHVVRPKLPKPPTDPLGAVFSPPQASPPQPSHGLQSCRNLRGSPKLPDFLQRNPLPPILGSPTKAVPSFDFPKTPSSQNLLALLARQGVVMTPPRNRTLPDLSEVGPFHGQPLGPGLRPGEDPKGPFGRSFSTSRLTDLLLKAAFGTQAPDPGSTESLQEKPMEIAPSAGFGGSLHPGARAGGTSSPSPVVFTVGSPPSGSTPPQGPRTRMFSAGPTGSASSSARHLVPGPCSEAPAPELPAPGHGCSFADPITANLEGAVTFEAPDLPEETLMEQEHTEILRGLRFTLLFVQHVLEIAALKGSASEAAGGPEYQLQESVVADQISLLSREWGFAEQLVLYLKVAELLSSGLQSAIDQIRAGKLCLSSTVKQVVRRLNELYKASVVSCQGLSLRLQRFFLDKQRLLDRIHSITAERLIFSHAVQMVQSAALDEMFQHREGCVPRYHKALLLLEGLQHMLSDQADIENVTKCKLCIERRLSALLTGICA
B1 was tested, and the “in vitro phosphorylation (γ32P ATP, autoradiography), wt vs kinase-dead K46I ULK1” value was “comparing active vs. kinase dead ULK1 we established that TRIM16 was a substrate for ULK1 phosphorylation”.

— US20240261378
